The values below come from US20120114667A1 (AstraZeneca / MedImmune, published 2012).

For orientation: Kd means the concentration at which binding is half-saturated. Low readings indicate higher affinity, high ones lower affinity.

Assay [1] concerns the target T1, α4β1 integrin on J6.77 Jurkat cells (UniProt P13612 34-1032; P05556 21-798). The assay can be described thus: cell-based or functional assay.
Assay [2] addresses T2, human α5β1 integrin (human, UniProt P08648 42-1049; P05556 21-798).
T2 construct: whole, on cells; also called a5b1; cellular α5β1
The assay can be described thus: FACS-based KD titration on K562 cells, 4 C, 5 h, 1 mM MgCl2 and 1 mM CaCl2. On the procedure:
To assess the affinity of the antibodies for α5β1, a FACS based KD analysis was employed. […] K562 cells expressing α5β1 were resuspended in filtered HBS buffer containing 1 mM MgCl₂ and 1 mM CaCl₂ at a concentration of approximately 2.5-6 million cells/mL. The cells were kept on ice. Serially diluted (2×) mAbs across 11 wells in a 96-well plate. All mAbs were diluted in HBS described above. Additional HBS and cells were added to each well so that the final volume was 300 μL/well and each well contained approximately 140,000-150,000 cells. The final molecular concentration range for each mAb was 3C5: 3.8 nM -7.5 μM; 5B11: 3.8 nM-7.3 μM. Cells were incubated on a plate shaker for 5 hours at 4° C. and then were spun/washed 3× at 4° C. with HBS. […] The Mean Fluorescence (F) of 7000 “events” was determined using FACS Canto II HTS flow cytometry instrumentation. To calculate affinity, data was fitted nonlinearly to a plot of the Mean Fluorescence as a function of molecular mAb concentration with Scientist 3.0 software using the equation:
In this equation, F=mean fluorescence, LT=total molecular mAb concentration, P′=proportionality constant that relates arbitrary fluorescence units to bound mAb, M=cellular concentration in molarity, n=number of receptors per cell, B=background signal, and KD=equilibrium dissociation constant. […]

Assay [3] concerns the target T1, α4β1 integrin on J6.77 Jurkat cells. Description: cell-based or functional assay. The source holds these as a separate data set.
Assay [4] deals with T2, human α5β1 integrin. Description: cell-based or functional assay.
Assay [5] deals with T2, human α5β1 integrin. Description: cell-based or functional assay. The source holds these as a separate data set.
Assay [6] has as its target T3, Macaque α5β1 (Macaque).
T3 construct: whole, on cells; macaque species not specified; also called monkey α5β1; monkey integrin
The assay can be described thus: FACS on macaque PBMC, 1 mM Mn2+. On the procedure:
To determine whether the antibodies cross reacted to monkey integrin, binding to purified Macaque T-cells was assessed. Macaque PBMCs were previously purified from whole blood, and stored frozen. Macaque PBMCs were suspended in adhesion buffer with HBSS 1% BSA and 1 mM Mn2+ (“FACS buffer”), at a concentration of 4.8×10⁵ live cells per ml. 12.5 uL of the primary antibody was added to 37.5 ul of cells, and incubated at 4° C. for 1 hour. Positive and negative controls were included as indicated. 100 uL of FACs buffer is added to dilute out primary antibody, the cells washed and resuspended in the appropriate secondary at 2 ug/mL (50 uL) with 10 ug/mL 7AAD, and stained on ice for 7 minutes. 100 uL of FACs buffer was added and cells were washed twice in FACS buffer, finally the supernatant removed and the cells were resuspended in 100 uL of buffer.
Samples were read on HTS FACS machine and analyzed using Cell Quest Pro software. The data shown in Table 7 confirm that the antibodies cross react with monkey α5β1.

The target in assay [7] is T4, β1 integrin chain on HT29 cells (α5 null line) (human, UniProt P05556 21-798).
T4 construct: whole, on cells; β1 is paired with alpha chains other than α5 on these cells; also called β1 chain; beta1
The assay can be described thus: FACS on HT29 cells (no α5, β1 present). On the procedure:
To confirm the antibodies bind to the α5 chain or to the α5β1 heterodimer, binding to Human colon adenocarcinoma grade II cells (HT29 cells) was assessed by FACS. […] HT-29 cells were suspended in HBSS with 1% BSA and 1 mM final MnCL₂ at a concentration of 6×10⁵ cells/ml.12.5 uL of the primary antibody was added to 37.5 ul of cells and the plate incubated on ice for 60 minutes. A range of negative controls were included as described previously (indicated as below). In addition as a positive control antibodies to αvβ6 (Mab2077, Chemicon), α5β1 (Mab1909, Chemicon) and av (L230, Chemicon) were included. 100 uL of HBSS buffer was added to dilute primary antibody, the cells pelleted by centrifuging at 1500 rpm for 3 minutes and resuspended in 50 ul Goat anti-human IgG Fc Cy5 or Goat anti Mouse IgG Fc Cy5 secondary at 2 ug/mL. They were then incubated on ice for a further 7 minutes, and 100 uL of HBSS buffer was added to dilute secondary antibody. Finally cells were pelleted by centrifuging at 1500 rpm for 3 minutes, HBSS Buffer/secondary supernatant removed, washed twice in 100 ul of FACS buffer was added and the cells were resuspended and then read on a FACS Calibur HTS. Samples were analyzed using Cell Quest Pro software. The data is represented in Table 6 and confirm that the antibodies are selective for α5β1.

The target in assay [8] is T5, mouse α5β1 integrin (mouse, UniProt P11688 45-999; P09055 21-728, limits assumed).
T5 construct: printed only as mouse integrin / murine integrin; also called mouse integrin; murine integrin
The assay can be described thus: not described.

T4 sequence (P05556 21-798): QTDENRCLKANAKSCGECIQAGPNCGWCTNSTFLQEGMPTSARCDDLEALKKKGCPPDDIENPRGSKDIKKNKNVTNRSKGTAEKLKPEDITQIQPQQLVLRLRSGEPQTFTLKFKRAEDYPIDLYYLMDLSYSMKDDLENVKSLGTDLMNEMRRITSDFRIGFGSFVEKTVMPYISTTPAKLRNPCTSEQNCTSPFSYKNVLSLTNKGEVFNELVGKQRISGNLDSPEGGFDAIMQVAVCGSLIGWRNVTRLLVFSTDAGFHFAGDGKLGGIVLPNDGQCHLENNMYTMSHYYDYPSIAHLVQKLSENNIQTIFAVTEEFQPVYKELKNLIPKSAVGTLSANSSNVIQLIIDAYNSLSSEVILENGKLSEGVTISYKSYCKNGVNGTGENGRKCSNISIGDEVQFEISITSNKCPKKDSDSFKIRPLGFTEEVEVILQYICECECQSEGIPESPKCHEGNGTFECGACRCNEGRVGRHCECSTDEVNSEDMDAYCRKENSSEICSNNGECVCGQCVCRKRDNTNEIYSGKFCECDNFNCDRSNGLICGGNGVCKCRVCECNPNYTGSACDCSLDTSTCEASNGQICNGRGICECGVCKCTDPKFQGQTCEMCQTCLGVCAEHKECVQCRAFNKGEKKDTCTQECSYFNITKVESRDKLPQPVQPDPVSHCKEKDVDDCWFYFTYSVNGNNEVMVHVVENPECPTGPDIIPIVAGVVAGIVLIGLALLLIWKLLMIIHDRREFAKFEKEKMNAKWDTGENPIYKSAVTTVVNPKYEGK
T1 sequence (P13612 34-1032, chain 1 of 2): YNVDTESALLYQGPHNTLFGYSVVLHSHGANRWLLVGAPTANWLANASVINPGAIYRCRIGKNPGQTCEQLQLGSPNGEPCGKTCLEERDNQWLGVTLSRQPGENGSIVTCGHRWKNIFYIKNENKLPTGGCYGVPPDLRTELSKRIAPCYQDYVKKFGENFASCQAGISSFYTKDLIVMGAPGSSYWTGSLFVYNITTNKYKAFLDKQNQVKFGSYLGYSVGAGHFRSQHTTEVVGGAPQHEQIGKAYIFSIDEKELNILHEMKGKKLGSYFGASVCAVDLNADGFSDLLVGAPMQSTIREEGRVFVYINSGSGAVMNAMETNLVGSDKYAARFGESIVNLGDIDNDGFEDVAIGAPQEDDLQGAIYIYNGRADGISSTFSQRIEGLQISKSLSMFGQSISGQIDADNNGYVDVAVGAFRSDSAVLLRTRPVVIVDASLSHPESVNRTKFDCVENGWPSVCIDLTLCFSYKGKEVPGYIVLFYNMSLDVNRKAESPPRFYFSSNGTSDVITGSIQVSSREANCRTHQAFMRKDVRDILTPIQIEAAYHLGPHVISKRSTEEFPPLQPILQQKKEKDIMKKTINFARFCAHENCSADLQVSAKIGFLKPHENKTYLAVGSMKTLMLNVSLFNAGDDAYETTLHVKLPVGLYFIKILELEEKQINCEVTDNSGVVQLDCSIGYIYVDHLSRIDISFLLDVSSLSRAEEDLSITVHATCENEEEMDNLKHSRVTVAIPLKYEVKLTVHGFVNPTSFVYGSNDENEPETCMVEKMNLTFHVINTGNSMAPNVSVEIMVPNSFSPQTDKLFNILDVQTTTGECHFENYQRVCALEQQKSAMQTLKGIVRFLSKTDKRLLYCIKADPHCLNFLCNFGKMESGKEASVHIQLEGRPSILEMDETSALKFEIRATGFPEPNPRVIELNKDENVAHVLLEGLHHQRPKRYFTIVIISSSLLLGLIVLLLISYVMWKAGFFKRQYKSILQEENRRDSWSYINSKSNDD
T1 sequence (P05556 21-798, chain 2 of 2): as the sequence (P05556 21-798) above
T2 sequence (P08648 42-1049, chain 1 of 2): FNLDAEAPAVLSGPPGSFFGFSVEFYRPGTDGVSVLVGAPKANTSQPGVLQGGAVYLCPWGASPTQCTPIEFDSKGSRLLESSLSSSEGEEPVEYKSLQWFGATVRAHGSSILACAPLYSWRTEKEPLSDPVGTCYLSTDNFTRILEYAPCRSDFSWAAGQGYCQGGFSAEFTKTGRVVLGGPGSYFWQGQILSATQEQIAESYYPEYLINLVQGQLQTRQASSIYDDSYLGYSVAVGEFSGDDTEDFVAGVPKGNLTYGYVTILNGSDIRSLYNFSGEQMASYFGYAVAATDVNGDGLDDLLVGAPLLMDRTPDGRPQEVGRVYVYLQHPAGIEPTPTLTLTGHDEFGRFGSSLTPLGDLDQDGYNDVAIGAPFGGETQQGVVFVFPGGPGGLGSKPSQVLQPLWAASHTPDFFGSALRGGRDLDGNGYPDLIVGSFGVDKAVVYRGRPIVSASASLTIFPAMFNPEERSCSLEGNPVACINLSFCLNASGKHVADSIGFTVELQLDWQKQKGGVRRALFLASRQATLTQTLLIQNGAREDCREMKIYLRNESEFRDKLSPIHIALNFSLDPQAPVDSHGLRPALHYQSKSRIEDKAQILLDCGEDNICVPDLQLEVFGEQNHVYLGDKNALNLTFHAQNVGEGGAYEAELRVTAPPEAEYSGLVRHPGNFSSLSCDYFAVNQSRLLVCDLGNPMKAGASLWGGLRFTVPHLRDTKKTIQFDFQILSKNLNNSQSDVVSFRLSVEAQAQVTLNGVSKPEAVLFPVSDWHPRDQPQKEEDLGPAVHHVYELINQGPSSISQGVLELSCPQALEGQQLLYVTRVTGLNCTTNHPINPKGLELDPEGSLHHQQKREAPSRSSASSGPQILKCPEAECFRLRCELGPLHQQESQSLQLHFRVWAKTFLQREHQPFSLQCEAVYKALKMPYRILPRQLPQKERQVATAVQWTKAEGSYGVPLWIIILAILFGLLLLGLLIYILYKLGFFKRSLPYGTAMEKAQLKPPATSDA
T2 sequence (P05556 21-798, chain 2 of 2): as the sequence (P05556 21-798) above
T5 sequence (P11688 45-999 limits assumed, chain 1 of 2): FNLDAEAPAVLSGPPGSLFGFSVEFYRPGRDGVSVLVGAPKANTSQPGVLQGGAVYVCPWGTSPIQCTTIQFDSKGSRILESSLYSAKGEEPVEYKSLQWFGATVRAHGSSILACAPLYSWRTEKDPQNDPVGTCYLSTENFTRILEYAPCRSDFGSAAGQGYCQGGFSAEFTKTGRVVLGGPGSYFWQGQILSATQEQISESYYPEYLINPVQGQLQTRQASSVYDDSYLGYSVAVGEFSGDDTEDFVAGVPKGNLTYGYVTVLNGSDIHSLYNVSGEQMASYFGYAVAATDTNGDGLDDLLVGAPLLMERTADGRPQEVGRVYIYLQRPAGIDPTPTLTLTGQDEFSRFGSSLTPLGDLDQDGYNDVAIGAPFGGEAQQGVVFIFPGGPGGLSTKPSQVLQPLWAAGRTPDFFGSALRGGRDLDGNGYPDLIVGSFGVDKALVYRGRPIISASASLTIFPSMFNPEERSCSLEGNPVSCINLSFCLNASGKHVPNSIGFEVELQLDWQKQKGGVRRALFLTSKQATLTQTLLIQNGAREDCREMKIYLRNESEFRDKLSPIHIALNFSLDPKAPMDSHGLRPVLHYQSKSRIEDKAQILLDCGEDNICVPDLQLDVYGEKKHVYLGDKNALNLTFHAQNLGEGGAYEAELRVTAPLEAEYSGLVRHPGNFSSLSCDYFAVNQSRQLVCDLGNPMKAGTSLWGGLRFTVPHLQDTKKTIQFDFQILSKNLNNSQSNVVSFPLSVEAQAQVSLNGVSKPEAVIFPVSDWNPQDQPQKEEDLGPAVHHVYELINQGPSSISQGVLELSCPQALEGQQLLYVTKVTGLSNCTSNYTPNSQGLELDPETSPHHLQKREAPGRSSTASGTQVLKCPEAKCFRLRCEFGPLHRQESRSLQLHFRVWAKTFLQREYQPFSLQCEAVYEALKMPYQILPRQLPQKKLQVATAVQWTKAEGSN
T5 sequence (P09055 21-728 limits assumed, chain 2 of 2): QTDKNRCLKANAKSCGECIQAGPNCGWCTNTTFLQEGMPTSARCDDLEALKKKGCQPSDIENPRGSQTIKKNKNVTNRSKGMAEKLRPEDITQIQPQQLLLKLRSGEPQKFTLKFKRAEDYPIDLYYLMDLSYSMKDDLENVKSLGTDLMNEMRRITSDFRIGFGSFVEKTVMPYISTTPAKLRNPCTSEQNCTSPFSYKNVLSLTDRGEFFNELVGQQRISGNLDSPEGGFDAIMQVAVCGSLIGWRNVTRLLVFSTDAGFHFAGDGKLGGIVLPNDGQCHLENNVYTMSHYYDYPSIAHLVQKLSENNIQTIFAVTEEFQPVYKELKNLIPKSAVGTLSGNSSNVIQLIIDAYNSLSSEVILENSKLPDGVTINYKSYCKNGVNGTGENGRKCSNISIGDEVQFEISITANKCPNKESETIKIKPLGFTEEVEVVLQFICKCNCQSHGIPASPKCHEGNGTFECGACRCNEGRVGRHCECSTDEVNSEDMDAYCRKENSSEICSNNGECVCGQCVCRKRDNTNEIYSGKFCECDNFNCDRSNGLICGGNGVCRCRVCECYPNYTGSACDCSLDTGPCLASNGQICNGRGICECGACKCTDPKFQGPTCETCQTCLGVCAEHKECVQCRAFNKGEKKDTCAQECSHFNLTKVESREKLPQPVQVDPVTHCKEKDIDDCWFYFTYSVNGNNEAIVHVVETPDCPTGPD

B1: 5B11 (antibody, IgG2, V domains shown)
VH: QVQLVESGGGVVQPGRSVRLSCAASGFTFSSYGMHWVRQTPGKGLEWVAIIWYDGGIEYYADSVKGRFTISRDNSKNTLYLQMNSLRAEDTAVYYCARDHRYGSSWFDYWGQGTLVTVSS
VL: DIQMTQSPSSLSASVGDRVTITCRASQGINNYLAWFQQKPGKAPKSLIYAASSLQSGVPSNFSGSGSGTDFTLSISSLQPEDFATYYCQQYKSYPLTFGGGTKVEIR
notes: also called MAb 5B11; mAb 5B11
As to B1, the “Average % inhibition at 5 ug/ml (J6 adhesion to GST-CS-1)” value (from here on “Average % inhibition at 5 ug/ml”) in assay [1] is -9%. The same molecule showed a Kd in assay [2] of 0.0347 nM. In assay [3], the “% Inhibition of adhesion CS1 n = 1 (J6.77 Jurkat on GST-CS-1)” value turned out to be 27% and the “% Inhibition of adhesion CS1 n = 2 (J6.77 Jurkat on GST-CS-1)” value was -15%. Further, in assay [4], the “% Inhibition of cell adhesion n = 1 (K562 on full length FN)” value was found to be 96%; the “% Inhibition of cell adhesion n = 2 (K562 on full length FN)” value turned out to be 98%; the “% Inhibition of cell adhesion n = 3 (K562 on GST-FNIII(9-10), no pre-incubation)” value was 90%; the “% Inhibition of cell adhesion n = 4 (K562 on GST-FNIII(9-10), supernatant 1 in 10)” value worked out at 97%. For the same molecule, in assay [4], the “% Inhibition of cell adhesion n = 5 (K562 on GST-FNIII(9-10), supernatant 1 in 10)” value came to 102%. For the same molecule, in assay [5], the “IC50 ng/mL (K562 adhesion to GST-FNIII(9-10))” value (“IC50 ng/mL” below) was 28.4 ng/mL. The “Geo Mean on Macaque T-cells IgG detection” value (“Geo Mean” below) in assay [6] amounted to 12. In assay [7], the “Binding Geomean” value was found to be 4.62 and the binding result is “no binding”.

B2: 3C5 (antibody, IgG2, V domains shown)
VH: RVQLQESGPGLVKPSQTLSLTCTVSGGSIISGGYFWTWIRQHPGKGLEWIGYIYYSGSTYYSPSLKSRVTISVDTSKNQFSLKLSSVTAADTAVYYCTRAVPAAKGYYSYYGMDVWGQGTTVTVSS
VL: DIVMTQSPLSLPVTPGEPASISCRSSQSLLHSSGYNYLDWFLQKPGQSPQLLIYLSSNRASGVPDRFSGSGSGTDFTLKISRVEAEDVGVYYCMQALQTPFTFGPGTKVDIK
notes: also called MAb 3C5; mAb 3C5
Take B2: in assay [1], the “Average % inhibition at 5 ug/ml” value was 0%. Moreover, in assay [2], binding was characterised by a dissociation constant (Kd) of 0.0147 nM. Further, in assay [3], the “% Inhibition of adhesion CS1 n = 1 (J6.77 Jurkat on GST-CS-1)” value was found to be 24% and the “% Inhibition of adhesion CS1 n = 2 (J6.77 Jurkat on GST-CS-1)” value was -4%. Also, in assay [4], the “% Inhibition of cell adhesion n = 1 (K562 on full length FN)” value turned out to be 97%; the “% Inhibition of cell adhesion n = 2 (K562 on full length FN)” value is 96%; the “% Inhibition of cell adhesion n = 3 (K562 on GST-FNIII(9-10), no pre-incubation)” value amounted to 99%; the “% Inhibition of cell adhesion n = 4 (K562 on GST-FNIII(9-10), supernatant 1 in 10)” value was determined as 97%. Moreover, the “% Inhibition of cell adhesion n = 5 (K562 on GST-FNIII(9-10), supernatant 1 in 10)” value in assay [4] came to 104%. Further, the “IC50 ng/mL” value in assay [5] amounted to 12.4 ng/mL. In assay [6], the “Geo Mean” value came to 16. Further, the binding result in assay [8] is “no binding”. Moreover, in assay [7], the “Binding Geomean” value stood at 4.04 and the binding result is “no binding”.

B3: 2F5.1A4 (antibody, IgG2, V domains shown)
VH: QMQLVQSGAEVKKPGASVKVSCKASGYTFTGYYMHWVRQAPGQGLEWMGWINTNSGGTNCAQKFQVRVTMTRDTSISTAYMELSRLRSDDTAVYYCARGRGYSSGWYDYWGQGTLVTVSS
VL: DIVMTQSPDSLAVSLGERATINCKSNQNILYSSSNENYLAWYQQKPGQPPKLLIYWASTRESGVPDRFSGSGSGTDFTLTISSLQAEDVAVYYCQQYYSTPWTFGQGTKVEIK
B3: in assay [1], the “Average % inhibition at 5 ug/ml” value was -12%. In addition, in assay [3], the “% Inhibition of adhesion CS1 n = 1 (J6.77 Jurkat on GST-CS-1)” value came to 31% and the “% Inhibition of adhesion CS1 n = 2 (J6.77 Jurkat on GST-CS-1)” value is -8%. Further, in assay [4], the “% Inhibition of cell adhesion n = 1 (K562 on full length FN)” value is 96%; the “% Inhibition of cell adhesion n = 2 (K562 on full length FN)” value came to 100%; the “% Inhibition of cell adhesion n = 3 (K562 on GST-FNIII(9-10), no pre-incubation)” value came to 103%; the “% Inhibition of cell adhesion n = 4 (K562 on GST-FNIII(9-10), supernatant 1 in 10)” value came to 91%. For the same molecule, the “% Inhibition of cell adhesion n = 5 (K562 on GST-FNIII(9-10), supernatant 1 in 10)” value in assay [4] came out at 84%. In assay [5], the “IC50 ng/mL” value is 97.8 ng/mL. Also, the “Geo Mean” value in assay [6] was determined as 13. Also, in assay [7], the “Binding Geomean” value was determined as 2.94 and the binding result is listed as “no binding”.
